The values that follow come from patent EP1262190A1, “RFRP-CONTAINING PROLACTIN SECRETION REGULATORY AGENT” (Takeda Chemical Industries, Ltd., priority 2000, dated 2001).

For this experiment, the target named is human 0T7T022 receptor (human). The experiment can be described thus: cell-based or functional assay.

“rRFRP-1-37 (peptide having the 58 (Ser) to 94 (Phe) amino acid sequence in SEQ ID NO:50)” had an ED50, inhibition of the cAMP level increased by forskolin of 30 nM.
The substance “hRFRP-1-37 (peptide having the 56 (Ser) to 92 (Phe) amino acid sequence in SEQ ID NO:1)” gave an ED50, inhibition of the cAMP level increased by forskolin of 21 nM.
